B1: Recombinant Hxk2, wild type, with C-terminal 6-histidine tag (enzyme, S. cerevisiae)
chain: MVHLGPKKPQARKGSMADVPKELMQQIENFEKIFTVPTETLQAVTKHFISELEKGLSKKGGNIPMIPGWVMDFPTGKESGDFLAIDLGGTNLRVVLVKLGGDRTFDTTQSKYRLPDAMRTTQNPDELWEFIADSLKAFIDEQFPQGISEPIPLGFTFSFPASQNKINEGILQRWTKGFDIPNIENHDVVPMLQKQITKRNIPIEVVALINDTTGTLVASYYTDPETKMGVIFGTGVNGAYYDVCSDIEKLQGKLSDDIPPSAPMAINCEYGSFDNEHVVLPRTKYDITIDEESPRPGQQTFEKMSSGYYLGEILRLALMDMYKQGFIFKNQDLSKFDKPFVMDTSYPARIEEDPFENLEDTDDLFQNEFGINTTVQERKLIRRLSELIGARAARLSVCGIAAICQKRGYKTGHIAADGSVYNRYPGFKEKAANALKDIYGWTQTSLDDYPIKIVPAEDGSGAGAAVIAALAQKRIAEGKSVGIIGA
notes: Hexokinase 2 (Hxk2), S. cerevisiae, cloned into pET14b; also called WT Hxk2; purified Hxk2; source: E. coli, purified (Ni-NTA)

Key:
[1] = biological target: Hxk2 (hexokinase 2, ScHxk2) (UniProt P04807); assay: size exclusion chromatography; conditions: reference: wild type Hxk2, no glucose; sites S15
[2] = biological target: the molecule itself; assay: SEC; TOSOH G2000 SWXL column on HPLC; 40 μg protein in 50 μl; hexokinase buffer (20 mM HEPES, 5 mM Mg acetate, 100 mM NaCl, 0.5 mM EDTA, 0.5 mM DTT) without glucose, no ATP; 1 mL/min

Molecule	other: SEC elution volume [1]	stoichiometry N [2]
Hxk2 (hexokinase 2, ScHxk2) (from UniProt P04807) Hxk2 S15D, no glucose	lost; reference ~8.8	
B1		2

From publication PMC10228819, “Changing course: Glucose starvation drives nuclear accumulation of Hexokinase 2 in S. cerevisiae” (PLOS Genetics, 2023)
